The binders below were run against T1, C1q Human protein (human, UniProt P02745 23-245; P02746 28-253; P02747 29-245) (assay: ELISA; plates coated with each of 28 ORF8 peptides (1 mM in carbonate buffer 50 mM pH 9.6, overnight 2-8 °C); human C1q (5, 10, 25 or 100 nM in 3% BSA/TBST) 2 h at room temperature; detected with sheep polyclonal anti-C1Q-HRP). Conditions: both partners purified.
T1 construct: human complement C1q subcomponent subunit A (A chain of the C1q complex); human complement C1q subcomponent subunit B (B chain of the C1q complex); human complement C1q subcomponent subunit C (C chain of the C1q complex); The methods call it recombinant human C1q; also called human C1q; purified human C1q protein; source: bought: Complement Technology (Cat. A099); copies: 6 + 6 + 6
T1 sequence (P02745 23-245, chain 1 of 3): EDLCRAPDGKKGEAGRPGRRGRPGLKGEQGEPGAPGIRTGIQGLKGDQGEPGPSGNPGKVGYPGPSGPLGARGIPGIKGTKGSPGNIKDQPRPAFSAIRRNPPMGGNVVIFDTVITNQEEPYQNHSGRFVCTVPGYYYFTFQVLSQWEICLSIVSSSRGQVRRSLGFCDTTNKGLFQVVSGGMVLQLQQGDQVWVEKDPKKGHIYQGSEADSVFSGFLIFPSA
T1 sequence (P02746 28-253, chain 2 of 3): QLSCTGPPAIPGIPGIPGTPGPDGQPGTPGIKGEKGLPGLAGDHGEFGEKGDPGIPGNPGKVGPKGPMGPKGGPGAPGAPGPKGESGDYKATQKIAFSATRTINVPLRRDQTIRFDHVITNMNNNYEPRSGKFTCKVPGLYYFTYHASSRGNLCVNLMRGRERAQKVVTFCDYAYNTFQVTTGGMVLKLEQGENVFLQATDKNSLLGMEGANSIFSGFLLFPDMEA
T1 sequence (P02747 29-245, chain 3 of 3): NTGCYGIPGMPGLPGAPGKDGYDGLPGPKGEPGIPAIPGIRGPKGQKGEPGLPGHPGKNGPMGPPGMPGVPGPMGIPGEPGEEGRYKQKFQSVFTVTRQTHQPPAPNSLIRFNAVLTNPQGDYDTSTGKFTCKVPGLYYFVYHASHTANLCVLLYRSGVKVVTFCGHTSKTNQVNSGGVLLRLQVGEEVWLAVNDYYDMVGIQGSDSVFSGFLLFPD

Row | Binder | binding result
1 | YIDIGNYTVSCLPFT [SARS-CoV-2 ORF8 peptide #19 (Y73-T87)] | binds
2 | CPIHFYSKWYIRVGA [SARS-CoV-2 ORF8 peptide #10 (C37-A51)] | binds
3 | SLVVRCSFYEDFLEY [SARS-CoV-2 ORF8 peptide #25 (S97-Y111)] | binds
